Measurements from the RNAGym collection of RNA variant scans (doi:10.7554/elife.80360).

B1: Hairpin Ribozyme (parent)
chain: GUCCUCUUUCACGUGCGCGUGAAAGAGAGAAGUGAACCAGAGAAACACACGUUGUGGUAUAUUACCUGGUA

Variants of: B1
Experiment: self-cleavage, relative activity (ratio to wild type); higher = more cleavage; co-transcriptional

| Variant | self-cleavage |
| --- | --- |
| G25U A44C | 0.229 |
| G25U A44G | 0.165 |
| G25U A44U | 0.113 |
| A26U A45G | 0.168 |
| A26U A45U | 0.245 |
| G25C C65G | 0.174 |
| G25C C65A | 0.382 |
| G25C A47U | 0.0432 |
| G25C G56A | 0.149 |
| G27A A44U | 0.139 |
| G27A A44C | 0.143 |
| G25U U53C | 0.689 |
| G25U U53G | 0.376 |
| A26U A49G | 0.41 |
| A26U A49U | 0.0963 |
| A26C G34C | 1.47 |
| A26C A31G | 0.445 |
| A26C A31U | 0.097 |
| A26C A31C | 0.0424 |
| A26U U60A | 0.328 |
| A26U G54C | 0.305 |
| G27C A61U | 0.119 |
| A26G A59U | 0.233 |
| G25U A41G | 0.611 |

| Variant | self-cleavage |
| --- | --- |
| G25U A41C | 0.953 |
| G25A U58C | 0.581 |
| G25U U62C | 0.123 |
| G27A G54C | 0.105 |
| G25A G68U | 0.152 |
| G25A G68A | 0.164 |
| A26G U58A | 0.755 |
| A26G U58G | 0.693 |
| A26U A28U | 0.257 |
| A26U A28C | 0.155 |
| G27A A49G | 0.237 |
| G27A A49U | 0.112 |
| G27A A49C | 0.154 |
| G27C A71C | 0.53 |
| G27C A47G | 0.125 |
| G25C C66G | 0.217 |
| A26U A35C | 0.846 |
| A26U A35U | 0.302 |
| G25A A64C | 0.23 |
| G25A A64U | 0.173 |
| A26U A39C | 0.225 |
| A26U A39G | 0.207 |
| A26G C65A | 0.702 |
| A26G U70A | 1.06 |

| Variant | self-cleavage |
| --- | --- |
| A26G U70G | 0.81 |
| G27C A41C | 0.228 |
| G27C A41U | 0.367 |
| A26C C50U | 0.306 |
| G25C A26G | 0.254 |
| A26G G51A | 0.938 |
| A26G G51U | 0.9 |
| A26G G51C | 0.78 |
| A26U G51A | 0.661 |
| A26U G51U | 0.614 |
| A26U G51C | 0.447 |
| A26C C46G | 0.106 |
| G25U U70C | 0.679 |
| G25U U70G | 0.613 |
| G25U U70A | 0.432 |
| G27C C38A | 0.116 |
| G25U A30U | 0.0827 |
| G25U A30G | 0.124 |
| G25A A59U | 0.21 |
| G25U G54C | 0.241 |
| G25C A59U | 0.134 |
| G25C A59C | 0.232 |
| G25A G57A | 0.205 |
| A26G A71C | 1.55 |

| Variant | self-cleavage |
| --- | --- |
| G27A A71G | 0.545 |
| G25A A61C | 0.196 |
| A26G A61C | 0.173 |
| G25U C65A | 0.735 |
| G25U C65U | 0.188 |
| G25U C65G | 0.211 |
| G25C A45U | 0.205 |
| G25C A45G | 0.0878 |
| G25C A45C | 0.123 |
| G25A G34A | 0.715 |
| G25A G34U | 1.11 |
| G25A G32C | 0.0951 |
| G25A U62C | 0.224 |
| G25A U62A | 0.121 |
| A26C U60A | 0.659 |
| G25A G40U | 0.153 |
| A26C A28G | 0.785 |
| A26G G56C | 0.14 |
| A26G G56U | 0.151 |
| G25A U70C | 0.588 |
| G25U G42C | 0.22 |
| G25U G42U | 0.183 |
| A26U A71G | 0.781 |
| G27A C65U | 0.145 |

| Variant | self-cleavage |
| --- | --- |
| G27A C65A | 0.396 |
| G25C U62C | 0.252 |
| G25C U62G | 0.0816 |
| A26C A59U | 0.245 |
| A26U U53G | 0.489 |
| G25C A71U | 0.476 |
| G25C G27A | 0.213 |
| A26G A36U | 0.326 |
| A26G A36C | 0.474 |
| G25C A36G | 0.497 |
| G25C A36C | 0.539 |
| G27C A44U | 0.0991 |
| G27C A44G | 0.21 |
| A26U U63A | 0.127 |
| A26G C38A | 0.131 |
| A26U C48G | 0.117 |
| G25U A64C | 0.177 |
| G25U C48A | 0.143 |
| G25U C48U | 0.163 |
| G27A A47C | 0.214 |
| A26U C37G | 0.185 |
| A26U C37A | 0.243 |
| A26U A36C | 0.343 |
| A26U A36U | 0.414 |

| Variant | self-cleavage |
| --- | --- |
| G27A U52C | 0.477 |
| G27A U52G | 0.431 |
| G25U G57A | 0.145 |
| G25A U63G | 0.173 |
| A26C A47C | 0.199 |
| G25C C38G | 0.15 |
| A26G A39U | 0.407 |
| G25U A71G | 0.654 |
| A26G A41G | 1.13 |
| A26G A41U | 1.24 |
| A26U A64C | 0.15 |
| G25U A43G | 0.183 |
| G25U A43U | 0.217 |
| G25C U67A | 0.136 |
| G25C U67G | 0.152 |
| A26U A59G | 0.181 |
| G25C A41U | 0.931 |
| G25U C37A | 0.261 |
| G27A U62A | 0.155 |
| A26G U53G | 0.682 |
| G25C | 0.563 |
| G25U | 0.65 |
| A26U U58G | 0.631 |
| A26G G57U | 0.252 |

| Variant | self-cleavage |
| --- | --- |
| G27A G29U | 0.126 |
| G27A U67C | 0.141 |
| G25A G42A | 0.0699 |
| A26U G27C | 0.177 |
| G27A G34C | 0.945 |
| G27A G34U | 1.3 |
| G25C U53C | 0.417 |
| G25C A39U | 0.262 |
| G25C A39C | 0.324 |
| G25A C37U | 0.494 |
| G25C A28C | 0.214 |
| G25A C50G | 0.14 |
| G25C A64U | 0.134 |
| G25A C65A | 0.615 |
| G25A C65G | 0.215 |
| A26C A41C | 0.734 |
| A26C C65U | 0.256 |
| A26C C65A | 0.614 |
| A26C G57U | 0.32 |
| G25C G34A | 0.821 |
| G25C G34U | 1.25 |
| A26C A64G | 0.539 |
| A26C A64U | 0.158 |
